In patent US20150023971A1:

What was measured:
[1] = target: T1, …; test: SPOT length analysis, dot 3, HRP-S-protein detection
T1 sequence (peptide): IFRSSDFAKNFVQTD

SDFAK = target: T2, SDFAK; test: SPOT length analysis, dot 72, anti-histidine detection
T2 sequence (peptide): SDFAK

[2] = target: T3, …; test: SPOT length analysis, dot 22, HRP-S-protein detection
T3 sequence (peptide): RIFRSSDFAK

AKNF = target: T4, AKNF; test: SPOT length analysis, dot 87, anti-histidine detection
T4 sequence (peptide): AKNF

[3] = target: T5, sortilin peptide … on SPOT membrane; test: SPOT length analysis, dot 36, HRP-S-protein detection
T5 sequence (peptide, C-terminus anchored to the cellulose membrane through a beta-alanine linker): FAKNFVQTD

[4] = target: T6, …; test: SPOT length analysis, dot 23, HRP-S-protein detection
T6 sequence (peptide): IFRSSDFAKN

SSDF = target: T7, SSDF; test: SPOT length analysis, dot 83, anti-histidine detection
T7 sequence (peptide): SSDF

[5] = target: T8, …; test: SPOT length analysis, dot 14, HRP-S-protein detection
T8 sequence (peptide): RSSDFAKNFVQT

IFRSSD = target: T9, IFRSSD; test: SPOT length analysis, dot 57, HRP-S-protein detection
T9 sequence (peptide): IFRSSD

[6] = target: T10, …; test: SPOT length analysis, dot 21, anti-histidine detection
T10 sequence (peptide): SDFAKNFVQTD

SSDFA [7] = target: T11, SSDFA; test: SPOT length analysis, dot 71, anti-histidine detection
T11 sequence (peptide): SSDFA

[8] = target: T6, …; test: SPOT length analysis, dot 23, anti-histidine detection
FVQTD = target: T12, FVQTD; test: SPOT length analysis, dot 78, HRP-S-protein detection
T12 sequence (peptide): FVQTD

SSDFAK = target: T13, SSDFAK; test: SPOT length analysis, dot 60, anti-histidine detection
T13 sequence (peptide): SSDFAK

[9] = target: T14, …; test: SPOT length analysis, dot 4, HRP-S-protein detection
T14 sequence (peptide): RIFRSSDFAKNFVQ

[10] = target: T15, sortilin peptide … on SPOT membrane; test: SPOT length analysis, dot 1, anti-histidine detection
T15 sequence (peptide, C-terminus anchored to the cellulose membrane through a beta-alanine linker): RIFRSSDFAKNFVQTD

RSSDFAK = target: T16, RSSDFAK; test: SPOT length analysis, dot 49, anti-histidine detection
T16 sequence (peptide): RSSDFAK

[11] = target: T17, …; test: SPOT length analysis, dot 28, anti-histidine detection
T17 sequence (peptide): DFAKNFVQTD

[12] = target: T18, sortilin peptide RIFRSSDF on SPOT membrane; test: SPOT length analysis, dot 37, anti-histidine detection
T18 sequence (peptide, C-terminus anchored to the cellulose membrane through a beta-alanine linker): RIFRSSDF

DFAKNF = target: T19, DFAKNF; test: SPOT length analysis, dot 62, HRP-S-protein detection
T19 sequence (peptide): DFAKNF

[13] = target: T20, sortilin 4-mer peptide RIFR (length analysis); test: SPOT length analysis, dot 79, HRP-S-protein detection
T20 sequence (peptide, C-terminus anchored to the cellulose membrane through a beta-alanine linker): RIFR

FVQT = target: T21, FVQT; test: SPOT length analysis, dot 90, HRP-S-protein detection
T21 sequence (peptide): FVQT

SDFAKNFV = target: T22, SDFAKNFV; test: SPOT length analysis, dot 42, anti-histidine detection
T22 sequence (peptide): SDFAKNFV

FAKN = target: T23, FAKN; test: SPOT length analysis, dot 86, anti-histidine detection
T23 sequence (peptide): FAKN

[14] = target: T24, …; test: SPOT length analysis, dot 19, anti-histidine detection
T24 sequence (peptide): RSSDFAKNFVQ

[15] = target: T25, …; test: SPOT length analysis, dot 9, HRP-S-protein detection
T25 sequence (peptide): FRSSDFAKNFVQT

[16] = target: T26, …; test: SPOT length analysis, dot 17, HRP-S-protein detection
T26 sequence (peptide): IFRSSDFAKNF

[17] = target: T27, …; test: SPOT length analysis, dot 18, HRP-S-protein detection
T27 sequence (peptide): FRSSDFAKNFV

IFRS = target: T28, IFRS; test: SPOT length analysis, dot 80, HRP-S-protein detection
T28 sequence (peptide): IFRS

SSDFA [18] = target: T11, SSDFA; test: SPOT length analysis, dot 71, HRP-S-protein detection
FAKNFVQ = target: T29, FAKNFVQ; test: SPOT length analysis, dot 53, anti-histidine detection
T29 sequence (peptide): FAKNFVQ

RSSDFAKN = target: T30, RSSDFAKN; test: SPOT length analysis, dot 40, HRP-S-protein detection
T30 sequence (peptide): RSSDFAKN

[19] = target: T31, …; test: SPOT length analysis, dot 8, HRP-S-protein detection
T31 sequence (peptide): IFRSSDFAKNFVQ

[20] = target: T32, …; test: SPOT length analysis, dot 12, HRP-S-protein detection
T32 sequence (peptide): IFRSSDFAKNFV

IFRSSDF = target: T33, IFRSSDF; test: SPOT length analysis, dot 47, anti-histidine detection
T33 sequence (peptide): IFRSSDF

FRSSDFAK = target: T34, FRSSDFAK; test: SPOT length analysis, dot 39, HRP-S-protein detection
T34 sequence (peptide): FRSSDFAK

FAKNFVQT = target: T35, FAKNFVQT; test: SPOT length analysis, dot 44, anti-histidine detection
T35 sequence (peptide): FAKNFVQT

[21] = target: T36, …; test: SPOT length analysis, dot 29, HRP-S-protein detection
T36 sequence (peptide): RIFRSSDFA

FRSS = target: T37, FRSS; test: SPOT length analysis, dot 81, anti-histidine detection
T37 sequence (peptide): FRSS

FRSSDFA = target: T38, FRSSDFA; test: SPOT length analysis, dot 48, HRP-S-protein detection
T38 sequence (peptide): FRSSDFA

RIFRSSD [22] = target: T39, RIFRSSD; test: SPOT length analysis, dot 46, anti-histidine detection
T39 sequence (peptide): RIFRSSD

SSDFAKN = target: T40, SSDFAKN; test: SPOT length analysis, dot 50, anti-histidine detection
T40 sequence (peptide): SSDFAKN

RIFRSSD [23] = target: T39, RIFRSSD; test: SPOT length analysis, dot 46, HRP-S-protein detection
[24] = target: T27, …; test: SPOT length analysis, dot 18, anti-histidine detection
SDFAKN = target: T41, SDFAKN; test: SPOT length analysis, dot 61, HRP-S-protein detection
T41 sequence (peptide): SDFAKN

SDFAKNF = target: T42, SDFAKNF; test: SPOT length analysis, dot 51, HRP-S-protein detection
T42 sequence (peptide): SDFAKNF

[25] = target: T15, sortilin peptide … on SPOT membrane; test: SPOT length analysis, dot 1, HRP-S-protein detection
[26] = target: T43, …; test: SPOT length analysis, dot 30, anti-histidine detection
T43 sequence (peptide): IFRSSDFAK

B1: recombinant his-S-tagged pro-domain of human BDNF (residues Ala1-Arg110), from pET-30 Xa/LIC, E. coli (protein, not shown: small tags and cut ends)
chain: APMKEANIRGQGGLAYPGVRTHGTLESVNGPKAGSGLTSLADTFEHVIEELLDEDQKVRPNEENNKDADLYTSRVMLSSQVPLEPPLLFLLEEYKNYLDAANMSMRVRR
BLU Sprotein [1]: 76200 BLU | BLU His (SDFAK): 15900 BLU | BLU Sprotein [2]: 60500 BLU | BLU His (AKNF): 14600 BLU | BLU Sprotein [3]: 18800 BLU | BLU Sprotein [4]: 29800 BLU | BLU His (SSDF): 14100 BLU | BLU Sprotein [5]: 24600 BLU | BLU Sprotein (IFRSSD): 18100 BLU | BLU His [6]: 15700 BLU | BLU His (SSDFA [7]): 15800 BLU | BLU His [8]: 19700 BLU | BLU Sprotein (FVQTD): 15100 BLU | BLU His (SSDFAK): 16100 BLU | BLU Sprotein [9]: 172000 BLU | BLU His [10]: 57000 BLU | BLU His (RSSDFAK): 17300 BLU | BLU His [11]: 17400 BLU | BLU His [12]: 116000 BLU | BLU Sprotein (DFAKNF): 15200 BLU | BLU Sprotein [13]: 166000 BLU | BLU Sprotein (FVQT): 13600 BLU | BLU His (SDFAKNFV): 16300 BLU | BLU His (FAKN): 15200 BLU | BLU His [14]: 26000 BLU | BLU Sprotein [15]: 223000 BLU | BLU Sprotein [16]: 127000 BLU | BLU Sprotein [17]: 448000 BLU | BLU Sprotein (IFRS): 111000 BLU | BLU Sprotein (SSDFA [18]): 14700 BLU | BLU His (FAKNFVQ): 69600 BLU | BLU Sprotein (RSSDFAKN): 17200 BLU | BLU Sprotein [19]: 126000 BLU | BLU Sprotein [20]: 199000 BLU | BLU His (IFRSSDF): 24400 BLU | BLU Sprotein (FRSSDFAK): 19200 BLU | BLU His (FAKNFVQT): 80400 BLU | BLU Sprotein [21]: 60900 BLU | BLU His (FRSS): 20100 BLU | BLU Sprotein (FRSSDFA): 17200 BLU | BLU His (RIFRSSD [22]): 20200 BLU | BLU His (SSDFAKN): 16700 BLU | BLU Sprotein (RIFRSSD [23]): 21500 BLU | BLU His [24]: 19400 BLU | BLU Sprotein (SDFAKN): 15600 BLU | BLU Sprotein (SDFAKNF): 17200 BLU | BLU Sprotein [25]: 137000 BLU | BLU His [26]: 20800 BLU
